Results from patent US20230257470A1 (published 2023).

T1: human FcγRIIa type H (human, UniProt P12318 36-217)
T1 construct: also called FcyRIIaH; FcγRIIa(H)
T1 sequence: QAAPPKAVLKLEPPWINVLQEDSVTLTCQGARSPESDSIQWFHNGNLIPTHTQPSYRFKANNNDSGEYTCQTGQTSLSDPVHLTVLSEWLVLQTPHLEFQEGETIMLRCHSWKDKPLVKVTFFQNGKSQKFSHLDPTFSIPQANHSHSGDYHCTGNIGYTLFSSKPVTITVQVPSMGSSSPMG

T2: human FcγRIIb (human, UniProt P31994 43-217, limits assumed)
T2 construct: also called FcyRIfb; FcγIIB
T2 sequence: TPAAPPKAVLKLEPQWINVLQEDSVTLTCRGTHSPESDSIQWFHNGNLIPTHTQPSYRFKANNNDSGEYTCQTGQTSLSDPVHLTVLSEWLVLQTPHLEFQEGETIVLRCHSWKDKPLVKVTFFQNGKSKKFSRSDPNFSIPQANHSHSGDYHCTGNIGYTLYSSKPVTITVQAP


How the values were obtained:
Test in all cases: SPR (Biacore), FcγR over captured antibody; binding amount relative to IL6R-BF648/IL6R-L x100
[1] = biological target: T1, human FcγRIIa type H
[2] = biological target: T3, human FcγRIa (human, UniProt P12314 16-292, limits assumed)
T3 construct: also called FcyRIa; CD64
T3 sequence (P12314 16-292 limits assumed): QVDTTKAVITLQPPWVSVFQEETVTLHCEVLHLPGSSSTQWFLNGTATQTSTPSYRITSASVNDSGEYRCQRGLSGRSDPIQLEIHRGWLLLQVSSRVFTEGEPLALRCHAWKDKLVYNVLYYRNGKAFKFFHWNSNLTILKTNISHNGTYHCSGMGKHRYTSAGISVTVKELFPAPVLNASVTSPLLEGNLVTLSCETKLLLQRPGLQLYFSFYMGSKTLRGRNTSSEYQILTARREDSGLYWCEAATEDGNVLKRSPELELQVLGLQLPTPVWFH

[3] = biological target: T4, human FcγRIIIa type V (human, UniProt P08637 17-208, limits assumed)
T4 construct: also called FcyRIIIa; FcγRIIIaV
T4 sequence (P08637 other isoform, or with tags, fused parts or gaps limits assumed): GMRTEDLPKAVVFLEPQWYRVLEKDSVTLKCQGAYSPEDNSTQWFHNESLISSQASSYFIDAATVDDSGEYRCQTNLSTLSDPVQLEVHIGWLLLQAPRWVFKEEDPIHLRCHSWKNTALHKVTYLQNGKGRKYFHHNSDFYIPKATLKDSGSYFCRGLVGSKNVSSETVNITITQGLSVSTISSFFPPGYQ

[4] = biological target: T2, human FcγRIIb

Binder	relative binding [1]	relative binding [2]	relative binding [3]	relative binding [4]
IL6R-2B002/IL6R-L (antibody, human IgG1, name in EU numbering) heavy: QVQLQESGPGLVKPSETLSLTCAVSGHSISHDHAWSWVRQPPGEGLEWIGFISYSGITNYNPSLQGRVTISRDNSKNTLYLQMNSLRAEDTAVYYCARSLARTTAMDYWGEGTLVTVSSASTKGPSVFPLAPSSKSTSGGTAALGCLVKDYFPEPVTVSWNSGALTSGVHTFPAVLQSSGLYSLSSVVTVPSSSLGTQTYICNVNHKPSNTKVDKKVEPKSCDKTHTCPPCPAPDLLGGDSVFLFPPKPKDTLMISRTPEVTCVVVDVSHEDPEVKFNWYVDGVEVHNAKTKPREEQYNSTYRVVSVLTVLHQDWLNGKEYKCKVSNKALPAPIEKTISKAKGQPREPQVYTLPPSRDELTKNQVSLTCLVKGFYPSDIAVEWESNGQPENNYKTTPPVLDSDGSFFLYSKLTVDKSRWQQGNVFSCSVMHEALHNHYTQESLSLSP light: DIQMTQSPSSLSASVGDRVTITCRASQDISSYLNWYQQKPGKAPKLLIYYTSRLHSGVPSRFSGSGSGTDFTFTISSLQPEDIATYYCQQGNTLPYTFGQGTKVEIK	147 % of IL6R-BF648/IL6R-L	118 % of IL6R-BF648/IL6R-L	147 % of IL6R-BF648/IL6R-L	116 % of IL6R-BF648/IL6R-L
IL6R-2B169/IL6R-L (antibody, human IgG1, name in EU numbering) heavy: QVQLQESGPGLVKPSETLSLTCAVSGHSISHDHAWSWVRQPPGEGLEWIGFISYSGITNYNPSLQGRVTISRDNSKNTLYLQMNSLRAEDTAVYYCARSLARTTAMDYWGEGTLVTVSSASTKGPSVFPLAPSSKSTSGGTAALGCLVKDYFPEPVTVSWNSGALTSGVHTFPAVLQSSGLYSLSSVVTVPSSSLGTQTYICNVNHKPSNTKVDKKVEPKSCDKTHTCPPCPAPELLGGDSVFLFPPKPKDTLMISRTPEVTCVVVDVSHEDPEVKFNWYVDGVEVHNAKTKPREEQYNSTYRVVSVLTVLHQDWLNGKEYKCKISNKALPAPIEKTISKAKGQPREPQVYTLPPSRDELTKNQVSLTCLVKGFYPSDIAVEWESNGQPENNYKTTPPVLDSDGSFFLYSKLTVDKSRWQQGNVFSCSVMHEALHNHYTQESLSLSP light: DIQMTQSPSSLSASVGDRVTITCRASQDISSYLNWYQQKPGKAPKLLIYYTSRLHSGVPSRFSGSGSGTDFTFTISSLQPEDIATYYCQQGNTLPYTFGQGTKVEIK	83 % of IL6R-BF648/IL6R-L	73 % of IL6R-BF648/IL6R-L	94 % of IL6R-BF648/IL6R-L	104 % of IL6R-BF648/IL6R-L
IL6R-2B171/IL6R-L (antibody, human IgG1, name in EU numbering) heavy: QVQLQESGPGLVKPSETLSLTCAVSGHSISHDHAWSWVRQPPGEGLEWIGFISYSGITNYNPSLQGRVTISRDNSKNTLYLQMNSLRAEDTAVYYCARSLARTTAMDYWGEGTLVTVSSASTKGPSVFPLAPSSKSTSGGTAALGCLVKDYFPEPVTVSWNSGALTSGVHTFPAVLQSSGLYSLSSVVTVPSSSLGTQTYICNVNHKPSNTKVDKKVEPKSCDKTHTCPPCPAPELLGGDSVFLFPPKPKDTLMISRTPEVTCVVVDVSHEDPEVKFNWYVDGVEVHNAKTKPREEQYNSTYRVVSVLTVLHQDWLNGKEYKCKLSNKALPAPIEKTISKAKGQPREPQVYTLPPSRDELTKNQVSLTCLVKGFYPSDIAVEWESNGQPENNYKTTPPVLDSDGSFFLYSKLTVDKSRWQQGNVFSCSVMHEALHNHYTQESLSLSP light: DIQMTQSPSSLSASVGDRVTITCRASQDISSYLNWYQQKPGKAPKLLIYYTSRLHSGVPSRFSGSGSGTDFTFTISSLQPEDIATYYCQQGNTLPYTFGQGTKVEIK	115 % of IL6R-BF648/IL6R-L	116 % of IL6R-BF648/IL6R-L	122 % of IL6R-BF648/IL6R-L	113 % of IL6R-BF648/IL6R-L
IL6R-2B172/IL6R-L (antibody, human IgG1, name in EU numbering) heavy: QVQLQESGPGLVKPSETLSLTCAVSGHSISHDHAWSWVRQPPGEGLEWIGFISYSGITNYNPSLQGRVTISRDNSKNTLYLQMNSLRAEDTAVYYCARSLARTTAMDYWGEGTLVTVSSASTKGPSVFPLAPSSKSTSGGTAALGCLVKDYFPEPVTVSWNSGALTSGVHTFPAVLQSSGLYSLSSVVTVPSSSLGTQTYICNVNHKPSNTKVDKKVEPKSCDKTHTCPPCPAPELLGGDSVFLFPPKPKDTLMISRTPEVTCVVVDVSHEDPEVKFNWYVDGVEVHNAKTKPREEQYNSTYRVVSVLTVLHQDWLNGKEYKCKMSNKALPAPIEKTISKAKGQPREPQVYTLPPSRDELTKNQVSLTCLVKGFYPSDIAVEWESNGQPENNYKTTPPVLDSDGSFFLYSKLTVDKSRWQQGNVFSCSVMHEALHNHYTQESLSLSP light: DIQMTQSPSSLSASVGDRVTITCRASQDISSYLNWYQQKPGKAPKLLIYYTSRLHSGVPSRFSGSGSGTDFTFTISSLQPEDIATYYCQQGNTLPYTFGQGTKVEIK	179 % of IL6R-BF648/IL6R-L	140 % of IL6R-BF648/IL6R-L	144 % of IL6R-BF648/IL6R-L	132 % of IL6R-BF648/IL6R-L
IL6R-B3/IL6R-L (antibody, human IgG1, IL6R-G1d with K439E (EU numbering)) heavy: not shown light: DIQMTQSPSSLSASVGDRVTITCRASQDISSYLNWYQQKPGKAPKLLIYYTSRLHSGVPSRFSGSGSGTDFTFTISSLQPEDIATYYCQQGNTLPYTFGQGTKVEIK	1600 % of IL6R-BF648/IL6R-L	145 % of IL6R-BF648/IL6R-L	3260 % of IL6R-BF648/IL6R-L	58 % of IL6R-BF648/IL6R-L
IL6R-BP100/IL6R-L (antibody, human IgG1, name in EU numbering) heavy: QVQLQESGPGLVKPSETLSLTCAVSGHSISHDHAWSWVRQPPGEGLEWIGFISYSGITNYNPSLQGRVTISRDNSKNTLYLQMNSLRAEDTAVYYCARSLARTTAMDYWGEGTLVTVSSASTKGPSVFPLAPSSKSTSGGTAALGCLVKDYFPEPVTVSWNSGALTSGVHTFPAVLQSSGLYSLSSVVTVPSSSLGTQTYICNVNHKPSNTKVDKKVEPKSCDKTHTCPPCPAPELLGGDSVFLFPPKPKDTLMISRTPEVTCVVVDVAHEDPEVKFNWYVDGVEVHNAKTKPREEQYNSTYRVVSVLTVLHQDWLNGKEYKCKVSNKALPAPIEKTISKAKGQPREPQVYTLPPSRDELTKNQVSLTCLVKGFYPSDIAVEWESNGQPENNYKTTPPVLDSDGSFFLYSKLTVDKSRWQQGNVFSCSVMHEALHNHYTQESLSLSP light: DIQMTQSPSSLSASVGDRVTITCRASQDISSYLNWYQQKPGKAPKLLIYYTSRLHSGVPSRFSGSGSGTDFTFTISSLQPEDIATYYCQQGNTLPYTFGQGTKVEIK	128 % of IL6R-BF648/IL6R-L	121 % of IL6R-BF648/IL6R-L	138 % of IL6R-BF648/IL6R-L	110 % of IL6R-BF648/IL6R-L
IL6R-BP102/IL6R-L (antibody, human IgG1, name in EU numbering) heavy: QVQLQESGPGLVKPSETLSLTCAVSGHSISHDHAWSWVRQPPGEGLEWIGFISYSGITNYNPSLQGRVTISRDNSKNTLYLQMNSLRAEDTAVYYCARSLARTTAMDYWGEGTLVTVSSASTKGPSVFPLAPSSKSTSGGTAALGCLVKDYFPEPVTVSWNSGALTSGVHTFPAVLQSSGLYSLSSVVTVPSSSLGTQTYICNVNHKPSNTKVDKKVEPKSCDKTHTCPPCPAPELLGGDSVFLFPPKPKDTLMISRTPEVTCVVVDVQHEDPEVKFNWYVDGVEVHNAKTKPREEQYNSTYRVVSVLTVLHQDWLNGKEYKCKVSNKALPAPIEKTISKAKGQPREPQVYTLPPSRDELTKNQVSLTCLVKGFYPSDIAVEWESNGQPENNYKTTPPVLDSDGSFFLYSKLTVDKSRWQQGNVFSCSVMHEALHNHYTQESLSLSP light: DIQMTQSPSSLSASVGDRVTITCRASQDISSYLNWYQQKPGKAPKLLIYYTSRLHSGVPSRFSGSGSGTDFTFTISSLQPEDIATYYCQQGNTLPYTFGQGTKVEIK	66 % of IL6R-BF648/IL6R-L	104 % of IL6R-BF648/IL6R-L	86 % of IL6R-BF648/IL6R-L	106 % of IL6R-BF648/IL6R-L
IL6R-BP103/IL6R-L (antibody, human IgG1, name in EU numbering) heavy: QVQLQESGPGLVKPSETLSLTCAVSGHSISHDHAWSWVRQPPGEGLEWIGFISYSGITNYNPSLQGRVTISRDNSKNTLYLQMNSLRAEDTAVYYCARSLARTTAMDYWGEGTLVTVSSASTKGPSVFPLAPSSKSTSGGTAALGCLVKDYFPEPVTVSWNSGALTSGVHTFPAVLQSSGLYSLSSVVTVPSSSLGTQTYICNVNHKPSNTKVDKKVEPKSCDKTHTCPPCPAPELLGGDSVFLFPPKPKDTLMISRTPEVTCVVVDVVHEDPEVKFNWYVDGVEVHNAKTKPREEQYNSTYRVVSVLTVLHQDWLNGKEYKCKVSNKALPAPIEKTISKAKGQPREPQVYTLPPSRDELTKNQVSLTCLVKGFYPSDIAVEWESNGQPENNYKTTPPVLDSDGSFFLYSKLTVDKSRWQQGNVFSCSVMHEALHNHYTQESLSLSP light: DIQMTQSPSSLSASVGDRVTITCRASQDISSYLNWYQQKPGKAPKLLIYYTSRLHSGVPSRFSGSGSGTDFTFTISSLQPEDIATYYCQQGNTLPYTFGQGTKVEIK	69 % of IL6R-BF648/IL6R-L	56 % of IL6R-BF648/IL6R-L	77 % of IL6R-BF648/IL6R-L	107 % of IL6R-BF648/IL6R-L
IL6R-BP106/IL6R-L (antibody, human IgG1, name in EU numbering) heavy: QVQLQESGPGLVKPSETLSLTCAVSGHSISHDHAWSWVRQPPGEGLEWIGFISYSGITNYNPSLQGRVTISRDNSKNTLYLQMNSLRAEDTAVYYCARSLARTTAMDYWGEGTLVTVSSASTKGPSVFPLAPSSKSTSGGTAALGCLVKDYFPEPVTVSWNSGALTSGVHTFPAVLQSSGLYSLSSVVTVPSSSLGTQTYICNVNHKPSNTKVDKKVEPKSCDKTHTCPPCPAPELLGGDSVFLFPPKPKDTLMISRTPEVTCVVVDVSDEDPEVKFNWYVDGVEVHNAKTKPREEQYNSTYRVVSVLTVLHQDWLNGKEYKCKVSNKALPAPIEKTISKAKGQPREPQVYTLPPSRDELTKNQVSLTCLVKGFYPSDIAVEWESNGQPENNYKTTPPVLDSDGSFFLYSKLTVDKSRWQQGNVFSCSVMHEALHNHYTQESLSLSP light: DIQMTQSPSSLSASVGDRVTITCRASQDISSYLNWYQQKPGKAPKLLIYYTSRLHSGVPSRFSGSGSGTDFTFTISSLQPEDIATYYCQQGNTLPYTFGQGTKVEIK	110 % of IL6R-BF648/IL6R-L	127 % of IL6R-BF648/IL6R-L	127 % of IL6R-BF648/IL6R-L	116 % of IL6R-BF648/IL6R-L
